Experimental data taken from US20240228648A1.

How the values were obtained:
[1] = biological target: CD38 on the surface of Daudi cells (human) (UniProt P28907); assay: cell-based or functional assay
[2] = biological target: CD38 on the surface of Daudi cells (human) (UniProt P28907); assay: flow cytometry on Daudi cells, antibody 50 nM
[3] = biological target: CD38 on the surface of Daudi cells (human) (UniProt P28907); assay: flow cytometry on Daudi cells, antibody 300 nM
[4] = biological target: CD38 on the surface of Daudi cells (human) (UniProt P28907); assay: flow cytometry on Daudi cells, antibody 1.85 nM
[5] = biological target: CD38 on the surface of Daudi cells (human) (UniProt P28907); assay: flow cytometry on Daudi cells, antibody 16.7 nM
[6] = biological target: CD38 on the surface of Daudi cells (human) (UniProt P28907); assay: flow cytometry on Daudi cells, antibody 5.56 nM
[7] = biological target: CD38 on the surface of Daudi cells (human) (UniProt P28907); assay: flow cytometry on Daudi cells, antibody 0.069 nM
[8] = biological target: CD38 on the surface of Daudi cells (human) (UniProt P28907); assay: flow cytometry on Daudi cells, antibody 0.206 nM
[9] = biological target: CD38 on the surface of Daudi cells (human) (UniProt P28907); assay: flow cytometry on Daudi cells, antibody 1.617 nM (so in the source)
[10] = biological target: recombinant biotinylated CD38-avi protein (extracellular domain of human CD38) (human) (UniProt P28907); assay: capture ELISA, antibody 50 nM, biotinylated CD38-avi 0.5 ug/ml
[11] = biological target: recombinant biotinylated CD38-avi protein (extracellular domain of human CD38) (human) (UniProt P28907); assay: capture ELISA, antibody 12.5 nM, biotinylated CD38-avi 0.5 ug/ml
[12] = biological target: recombinant biotinylated CD38-avi protein (extracellular domain of human CD38) (human) (UniProt P28907); assay: capture ELISA, antibody 0.012 nM, biotinylated CD38-avi 0.5 ug/ml
[13] = biological target: recombinant biotinylated CD38-avi protein (extracellular domain of human CD38) (human) (UniProt P28907); assay: capture ELISA, antibody 0.049 nM, biotinylated CD38-avi 0.5 ug/ml
[14] = biological target: recombinant biotinylated CD38-avi protein (extracellular domain of human CD38) (human) (UniProt P28907); assay: capture ELISA, antibody 0.195 nM, biotinylated CD38-avi 0.5 ug/ml
[15] = biological target: recombinant biotinylated CD38-avi protein (extracellular domain of human CD38) (human) (UniProt P28907); assay: capture ELISA, antibody 0.781 nM, biotinylated CD38-avi 0.5 ug/ml
[16] = biological target: recombinant biotinylated CD38-avi protein (extracellular domain of human CD38) (human) (UniProt P28907); assay: capture ELISA, antibody 3.125 nM, biotinylated CD38-avi 0.5 ug/ml
[17] = biological target: recombinant biotinylated CD38-avi protein (extracellular domain of human CD38) (human) (UniProt P28907); assay: capture ELISA, antibody 0 nM (background), biotinylated CD38-avi 0.5 ug/ml
[18] = biological target: CD38 on the surface of Daudi cells (human) (UniProt P28907); assay: flow cytometry on Daudi cells, anti-human IgG-Alexa647, fit in GraphPad Prism
[19] = biological target: recombinant biotinylated CD38-avi protein (extracellular domain of human CD38) (human) (UniProt P28907); assay: capture ELISA: antibody captured by anti-human Fc, biotinylated CD38-avi 0.5 ug/ml, fit in GraphPad Prism
[20] = biological target: recombinant biotinylated CD38-avi protein (extracellular domain of human CD38) (human) (UniProt P28907); assay: competitive ELISA, no competitor: plate coated with Darzalex (2 µg/ml); biotinylated CD38 alone, captured CD38 detected with streptavidin-HRP; replicate 1
[21] = biological target: recombinant biotinylated CD38-avi protein (extracellular domain of human CD38) (human) (UniProt P28907); assay: competitive ELISA, no competitor: plate coated with Darzalex (2 µg/ml); biotinylated CD38 alone, captured CD38 detected with streptavidin-HRP; replicate 2
[22] = biological target: recombinant biotinylated CD38-avi protein (extracellular domain of human CD38) (human) (UniProt P28907); assay: competitive ELISA: plate coated with Darzalex (2 µg/ml); biotinylated CD38 (0.2 µg/ml) pre-incubated with soluble Darzalex (15 µg/ml), captured CD38 detected with streptavidin-HRP; replicate 1
[23] = biological target: recombinant biotinylated CD38-avi protein (extracellular domain of human CD38) (human) (UniProt P28907); assay: competitive ELISA: plate coated with Darzalex (2 µg/ml); biotinylated CD38 (0.2 µg/ml) pre-incubated with soluble Darzalex (15 µg/ml), captured CD38 detected with streptavidin-HRP; replicate 2

ADCC activity (luciferase) on Daudi cells at 0.0015 nM antibody [1]: 0.12
ADCC activity (luciferase) on Daudi cells at 0.006 nM antibody [1]: 1.32
ADCC activity (luciferase) on Daudi cells at 0.0244 nM antibody [1]: 3.88
ADCC activity (luciferase) on Daudi cells at 0.098 nM antibody [1]: 14.7
ADCC activity (luciferase) on Daudi cells at 0.39 nM antibody [1]: 40.9
ADCC activity (luciferase) on Daudi cells at 1.56 nM antibody [1]: 57.2
ADCC activity (luciferase) on Daudi cells at 6.25 nM antibody [1]: 61
ADCC activity (luciferase) on Daudi cells at 25 nM antibody [1]: 64.1
ADCC activity (luciferase) on Daudi cells at 100 nM antibody [1]: 66.5
CDC: % live Daudi cells (P1) at 0.078 nM antibody [1]: 63.9%
CDC: % live Daudi cells (P1) at 0.156 nM antibody [1]: 75.2%
CDC: % live Daudi cells (P1) at 0.3125 nM antibody [1]: 70.6%
CDC: % live Daudi cells (P1) at 0.625 nM antibody [1]: 67.4%
CDC: % live Daudi cells (P1) at 1.25 nM antibody [1]: 55.6%
CDC: % live Daudi cells (P1) at 2.5 nM antibody [1]: 47.6%
CDC: % live Daudi cells (P1) at 5 nM antibody [1]: 40.9%
CDC: % live Daudi cells (P1) at 10 nM antibody [1]: 32.3%
Mean fluorescence [2]: 1.31e+06
Mean fluorescence [3]: 1.29e+06
Mean fluorescence [4]: 574000
Mean fluorescence [5]: 1.34e+06
Mean fluorescence [6]: 1.09e+06
Mean fluorescence [7]: 9320
Mean fluorescence [8]: 46700
Mean fluorescence [9]: 158000
OD450 [10]: 0.171 OD450
OD450 [11]: 0.164 OD450
OD450 [12]: 0.135 OD450
OD450 [13]: 0.147 OD450
OD450 [14]: 0.135 OD450
OD450 [15]: 0.145 OD450
OD450 [16]: 0.172 OD450
OD450 [17]: 0.143 OD450
Kd [18]: 3.26 nM
Kd [19]: 1.64 nM
OD450 [20]: 0.377
OD450 [21]: 0.385
OD450 [22]: 0.168
OD450 [23]: 0.176
Substance: Darzalex (antibody)
